B1: TY21687 (antibody, V domains shown)
VH: EVQLVESGGGLVQPGGSLRLSCAASGFTFSGYAIHWVRQAPGKGLEWIGIISPSGGGTKYAQKFQGRVTISRDNSKNTLYLQLNSLRAEDTAVYYCARHPFAYWGQGTLVTVSS
VL: DIQLTQSPSSLSASVGDRVTITCRASQSVDFYGISFLDWYQQKPGKAPKLLIYDASNRATGIPSRFSGSGSGTDFTLTISSLQPEDFATYYCQQYVSSPPEYTFGQGTKVEIK
notes: human IgG1 (hIgG1) from Fab hit B15700
B2: TY21591 (antibody, V domains shown)
VH: EVQLVESGGGLVQPGGSLRLSCAASGFSLSTGGVAVSWIRQAPGKGLEWIGEIYHSGSTYYSPSLKSRVTISRDNSKNTLYLQLNSLRAEDTAVYYCARRIATATYFDYWGQGTLVTVSS
VL: DIQLTQSPSSLSASVGDRVTITCRASQTVFSRYLAWYQQKPGKAPKLLIYDASNRATGIPSRFSGSGSGTDFTLTISSLQPEDFATYYCQQSYYWPPWTFGQGTKVEIK
notes: human IgG1 (hIgG1) from Fab hit B15756

How the values were obtained:
[1] = target: T1, human PD1 on HEK293F cells (human, UniProt Q15116 25-288); assay: flow cytometry, transfected HEK293F cells [Cont.]
T1 construct: whole, on cells
Procedure: (§1) Antibody selectivity was next examined. Human CTLA4, PD1, LAG3, Tim3, B7H3, CD95, TNFR1, OX40, CD40, PD-L1, BLTA, VISTA, PDL2, ICOS and B7H4 were transiently overexpressed on the surface of HEK293F cells. Transfected cells were washed in pre-chilled 1×PBSA buffer (1.76 mM KH2PO4, 10.14 mM Na2HPO4.12H2O, 2.68 mM KCl, 136.89 mM NaCl and 1% BSA), then incubated with 100 nM test antibodies for 1 hour on ice. Cells were washed once with staining buffer, and Alexa Fluor® 647 conjugated mouse anti-human FC antibodies were added and incubated for 30 minutes on ice, protected from light. Samples were washed once with staining buffer prior to analysis by flow cytometry.

[2] = target: T2, human LAG3 on HEK293F cells (human, UniProt P18627 23-525); assay: flow cytometry, transfected HEK293F cells [Cont.]
T2 construct: whole, on cells
T2 sequence (looked up): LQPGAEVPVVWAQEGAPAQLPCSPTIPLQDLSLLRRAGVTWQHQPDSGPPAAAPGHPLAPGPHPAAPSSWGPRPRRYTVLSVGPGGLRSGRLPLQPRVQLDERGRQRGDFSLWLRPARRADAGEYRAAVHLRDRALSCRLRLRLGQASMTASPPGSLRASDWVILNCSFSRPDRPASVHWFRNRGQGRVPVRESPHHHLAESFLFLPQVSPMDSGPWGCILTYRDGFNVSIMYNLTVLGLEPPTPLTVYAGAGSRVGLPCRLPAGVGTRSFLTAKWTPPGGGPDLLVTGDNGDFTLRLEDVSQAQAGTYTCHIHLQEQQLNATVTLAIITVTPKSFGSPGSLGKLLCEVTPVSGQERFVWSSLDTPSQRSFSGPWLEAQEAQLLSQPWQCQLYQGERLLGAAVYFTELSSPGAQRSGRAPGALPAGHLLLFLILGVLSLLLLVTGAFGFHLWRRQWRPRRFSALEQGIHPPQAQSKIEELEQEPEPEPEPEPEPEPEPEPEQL
Procedure: as §1

[3] = target: T1, human PD1 on HEK293F cells; assay: flow cytometry, transfected HEK293F cells, 100 nM antibody [Cont.]
Procedure: as §1

[4] = target: T3, human Tim3 on HEK293F cells (human, UniProt Q8TDQ0 22-301); assay: as above
T3 construct: whole, on cells
T3 sequence (looked up): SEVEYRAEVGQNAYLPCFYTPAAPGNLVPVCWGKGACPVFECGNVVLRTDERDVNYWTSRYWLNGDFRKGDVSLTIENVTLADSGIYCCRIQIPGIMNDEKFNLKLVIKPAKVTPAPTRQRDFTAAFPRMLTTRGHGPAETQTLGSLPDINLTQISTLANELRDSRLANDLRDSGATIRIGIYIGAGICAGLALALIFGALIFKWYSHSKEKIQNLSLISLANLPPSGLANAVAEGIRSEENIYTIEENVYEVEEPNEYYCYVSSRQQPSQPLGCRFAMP
Procedure: as §1

[5] = target: T4, human B7H3 on HEK293F cells (human, UniProt Q5ZPR3 29-534); assay: as above
T4 construct: whole, on cells
T4 sequence (looked up): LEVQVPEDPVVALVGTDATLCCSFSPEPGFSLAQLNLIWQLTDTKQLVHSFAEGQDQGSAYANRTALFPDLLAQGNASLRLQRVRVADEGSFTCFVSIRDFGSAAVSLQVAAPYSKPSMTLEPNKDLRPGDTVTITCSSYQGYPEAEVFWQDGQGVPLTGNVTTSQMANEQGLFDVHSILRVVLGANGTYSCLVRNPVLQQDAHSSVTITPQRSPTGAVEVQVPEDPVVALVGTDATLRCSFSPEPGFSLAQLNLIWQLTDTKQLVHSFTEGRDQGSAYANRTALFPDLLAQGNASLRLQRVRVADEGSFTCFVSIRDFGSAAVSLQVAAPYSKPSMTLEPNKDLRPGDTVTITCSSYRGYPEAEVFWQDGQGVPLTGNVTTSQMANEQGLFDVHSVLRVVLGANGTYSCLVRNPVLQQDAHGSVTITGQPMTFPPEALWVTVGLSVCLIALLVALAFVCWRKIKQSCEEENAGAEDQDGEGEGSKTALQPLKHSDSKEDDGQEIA
Procedure: as §1

[6] = target: T5, human CD95 on HEK293F cells (human, UniProt P25445 26-335); assay: flow cytometry, transfected HEK293F cells [Cont.]
T5 construct: whole, on cells
T5 sequence (looked up): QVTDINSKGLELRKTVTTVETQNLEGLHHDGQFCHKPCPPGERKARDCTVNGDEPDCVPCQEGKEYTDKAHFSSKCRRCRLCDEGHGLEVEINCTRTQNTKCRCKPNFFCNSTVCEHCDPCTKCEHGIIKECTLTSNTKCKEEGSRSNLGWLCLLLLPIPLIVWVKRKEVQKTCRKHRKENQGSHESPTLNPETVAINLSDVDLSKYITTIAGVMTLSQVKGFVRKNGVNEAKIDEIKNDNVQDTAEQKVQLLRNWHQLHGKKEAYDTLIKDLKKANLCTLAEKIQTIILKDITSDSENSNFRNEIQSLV
Procedure: as §1

[7] = target: T6, human TNFR1 on HEK293F cells (human, UniProt P19438 30-455); assay: flow cytometry, transfected HEK293F cells [Cont.]
T6 construct: whole, on cells; also called CD120a
T6 sequence (looked up): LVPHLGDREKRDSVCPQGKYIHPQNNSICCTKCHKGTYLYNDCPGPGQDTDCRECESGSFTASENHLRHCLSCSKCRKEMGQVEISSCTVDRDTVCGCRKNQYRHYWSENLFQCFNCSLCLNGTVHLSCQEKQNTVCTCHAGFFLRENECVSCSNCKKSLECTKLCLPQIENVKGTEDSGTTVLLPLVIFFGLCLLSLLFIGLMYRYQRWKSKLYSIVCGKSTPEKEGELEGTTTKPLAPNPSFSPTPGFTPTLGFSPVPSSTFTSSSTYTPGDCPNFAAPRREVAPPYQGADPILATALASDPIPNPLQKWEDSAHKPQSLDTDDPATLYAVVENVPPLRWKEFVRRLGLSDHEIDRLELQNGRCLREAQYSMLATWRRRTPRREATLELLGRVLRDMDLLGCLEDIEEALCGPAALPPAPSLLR
Procedure: as §1

T1 sequence (Q15116 25-288): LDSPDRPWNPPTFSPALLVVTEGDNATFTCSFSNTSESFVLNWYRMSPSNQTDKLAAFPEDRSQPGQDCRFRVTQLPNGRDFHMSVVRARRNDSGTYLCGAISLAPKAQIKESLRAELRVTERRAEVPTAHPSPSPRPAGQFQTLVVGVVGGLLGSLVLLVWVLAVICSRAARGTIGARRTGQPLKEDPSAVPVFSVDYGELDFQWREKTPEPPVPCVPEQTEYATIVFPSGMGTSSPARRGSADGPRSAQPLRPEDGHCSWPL

Row | Binder | binding result [1] | binding result [2] | % of cells in upper right quadrant (Q2) [3] [%] | % of cells in upper right quadrant (Q2) [4] [%] | % of cells in upper right quadrant (Q2) [5] [%] | binding result [6] | binding result [7]
1 | B1 | no binding (tested: 100 nM) | no binding (tested: 100 nM) | 5.96 | 1.85 | 1.29 | – | –
2 | B2 | – | – | – | – | – | no binding (tested: 100 nM) | no binding (tested: 100 nM)
